Results reported in CN113214393A.

Biological target: IL-6R (UniProt P08887)
Assay: chemiluminescent immunoassay; ABEI-labelled human IL-6 on IL-6R-coated magnetic beads, diluent only (no antibody); same control value printed in all four columns

Sequence of UniProt P08887 (P08887 20-358 limits assumed): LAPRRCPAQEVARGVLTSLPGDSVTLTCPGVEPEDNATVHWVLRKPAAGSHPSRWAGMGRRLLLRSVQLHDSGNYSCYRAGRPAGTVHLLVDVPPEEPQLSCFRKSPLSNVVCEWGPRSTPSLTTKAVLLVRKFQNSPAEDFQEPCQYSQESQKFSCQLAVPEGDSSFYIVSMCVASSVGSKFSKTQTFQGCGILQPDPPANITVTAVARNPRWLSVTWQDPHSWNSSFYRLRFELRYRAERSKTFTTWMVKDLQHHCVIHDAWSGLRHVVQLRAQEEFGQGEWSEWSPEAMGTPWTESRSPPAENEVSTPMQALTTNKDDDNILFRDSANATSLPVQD

Substance: 人IL-6抗原 (from UniProt P05231 30-212) (ligand)
- RLU (相对光强度): 606000 RLU
